Test results published in the supplement of paper PMC11136658.

System: peptide library, one residue held at a place counted from the Y acceptor
Test: relative phosphorylation of the sub-library (ratio to the mean residue at this position); higher = residue favoured
Procedure, shortened: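 Every value reflects phosphorylation relative to the mean randomized residue. The sum of the 18 randomized residues, or 16 in the Ser/Thr-free library, served to normalize intensities at each position, which were then multiplied by that number. Intensities came from phosphorimaging with ImageQuant of biotinylated Tyr-centred peptides captured on streptavidin membranes after 90 min with purified recombinant kinases and 50 μM ATP plus γ-32P-ATP.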

Chain of MERTK, construct: aa578-872, human (Q12866 578-872, looked up): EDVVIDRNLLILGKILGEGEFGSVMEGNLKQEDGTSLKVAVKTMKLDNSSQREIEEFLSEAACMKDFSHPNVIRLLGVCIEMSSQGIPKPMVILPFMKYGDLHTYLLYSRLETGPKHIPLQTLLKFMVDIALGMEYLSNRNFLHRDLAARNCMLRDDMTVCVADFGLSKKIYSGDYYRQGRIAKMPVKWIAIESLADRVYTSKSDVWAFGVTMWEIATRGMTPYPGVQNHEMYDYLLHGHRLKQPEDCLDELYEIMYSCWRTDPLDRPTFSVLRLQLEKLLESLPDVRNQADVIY
Chain of MET, construct: aa956-end, human (P08581 956-1390, looked up): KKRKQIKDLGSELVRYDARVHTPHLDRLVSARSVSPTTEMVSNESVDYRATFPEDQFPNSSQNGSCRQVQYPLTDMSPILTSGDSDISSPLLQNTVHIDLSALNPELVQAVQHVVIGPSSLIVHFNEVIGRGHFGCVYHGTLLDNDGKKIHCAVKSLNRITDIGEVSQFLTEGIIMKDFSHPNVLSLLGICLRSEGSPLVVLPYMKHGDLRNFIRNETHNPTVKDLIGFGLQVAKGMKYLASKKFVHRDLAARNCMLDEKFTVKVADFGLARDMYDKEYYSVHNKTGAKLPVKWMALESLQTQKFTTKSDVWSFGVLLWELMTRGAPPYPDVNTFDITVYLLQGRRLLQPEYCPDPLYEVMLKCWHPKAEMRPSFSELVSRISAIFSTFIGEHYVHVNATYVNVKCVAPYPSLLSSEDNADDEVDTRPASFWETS

MERTK, construct: aa578-872, human (from UniProt Q12866)
relative phosphorylation
Conditions | at +1 | at +2 | at +3 | at +4 | at +5 | at -1 | at -2 | at -3 | at -4 | at -5
A fixed | 2.07 | 0.87 | 0.578 | 0.92 | 1.15 | 0.711 | 1.06 | 1.01 | 1.28 | 1.1
D fixed | 0.89 | 0.601 | 0.483 | 0.962 | 0.839 | 0.591 | 0.967 | 1.27 | 1.12 | 0.979
E fixed | 1.69 | 1.01 | 0.426 | 1.27 | 0.786 | 0.468 | 1.28 | 1.55 | 1.44 | 0.974
F fixed | 1.01 | 1.64 | 1.93 | 1.14 | 0.565 | 1.75 | 0.655 | 0.836 | 0.595 | 1.03
G fixed | 0.859 | 0.321 | 0.63 | 1.37 | 1.61 | 0.299 | 1.63 | 1.28 | 1.46 | 1.31
H fixed | 0.791 | 0.687 | 0.848 | 1.12 | 1.01 | 1.4 | 0.989 | 0.875 | 0.891 | 0.994
I fixed | 0.708 | 1.34 | 1.58 | 0.549 | 0.621 | 2.37 | 0.533 | 0.482 | 0.84 | 0.889
K fixed | 0.25 | 0.594 | 0.254 | 0.822 | 0.996 | 0.436 | 0.948 | 0.746 | 0.911 | 1.05
L fixed | 0.831 | 1.4 | 2.13 | 0.799 | 0.745 | 2.69 | 0.777 | 0.863 | 1.02 | 0.993
M fixed | 1.4 | 1.2 | 1.64 | 1.09 | 0.917 | 1.14 | 0.68 | 0.967 | 0.968 | 1
N fixed | 0.447 | 0.768 | 0.465 | 0.76 | 0.879 | 0.842 | 1.26 | 1.21 | 0.926 | 1.13
P fixed | 0.172 | 0.684 | 1.17 | 1.2 | 2.65 | 0.481 | 1.18 | 1.32 | 1.25 | 1.24
Q fixed | 1.04 | 0.695 | 0.72 | 0.962 | 0.81 | 0.63 | 1.19 | 0.953 | 1.16 | 1.09
R fixed | 0.353 | 0.679 | 0.392 | 1.07 | 0.991 | 0.439 | 1.09 | 0.775 | 1.2 | 1.13
S fixed | 1.33 | 0.725 | 0.562 | 0.926 | 1.08 | 0.517 | 1.34 | 1.16 | 0.807 | 0.783
T fixed | 1.3 | 0.973 | 0.838 | 1 | 0.97 | 0.939 | 1.1 | 1.17 | 0.667 | 0.874
V fixed | 1.53 | 1.33 | 1.55 | 0.904 | 0.756 | 1.38 | 0.842 | 0.803 | 0.866 | 0.862
W fixed | 1.34 | 2.47 | 1.8 | 1.14 | 0.608 | 0.916 | 0.484 | 0.743 | 0.594 | 0.564
pThr fixed | 1.89 | 1.18 | 0.3 | 0.633 | 0.568 | 0.718 | 0.915 | 1.1 | 0.901 | 0.902
pTyr fixed | 1.96 | 2.62 | 0.613 | 0.678 | 0.61 | 2.26 | 1.19 | 1.46 | 1.13 | 0.957

MET, construct: aa956-end, human (from UniProt P08581)
relative phosphorylation
Conditions | at +1 | at +2 | at +3 | at +4 | at +5 | at -1 | at -2 | at -3 | at -4 | at -5
A fixed | 1.33 | 1.03 | 0.632 | 0.901 | 1.11 | 0.739 | 1.1 | 0.977 | 1.04 | 1.05
D fixed | 0.433 | 0.808 | 0.32 | 0.658 | 0.938 | 1.86 | 1.52 | 1.64 | 1.4 | 1.27
E fixed | 0.821 | 0.83 | 0.252 | 0.581 | 0.861 | 1.37 | 1.45 | 1.79 | 1.61 | 1.09
F fixed | 1.25 | 1.07 | 1.28 | 1.3 | 1.05 | 0.688 | 0.534 | 0.663 | 0.914 | 0.869
G fixed | 0.609 | 0.616 | 0.564 | 1.02 | 0.906 | 0.478 | 1.21 | 1.22 | 1.21 | 1.11
H fixed | 1.34 | 0.874 | 0.869 | 0.998 | 0.879 | 1.24 | 0.819 | 0.911 | 0.916 | 1
I fixed | 1.4 | 0.913 | 2.4 | 0.797 | 0.796 | 1.7 | 0.711 | 0.529 | 0.737 | 0.721
K fixed | 0.531 | 0.705 | 0.431 | 0.87 | 0.978 | 0.496 | 0.738 | 0.866 | 0.86 | 1.19
L fixed | 0.758 | 0.935 | 1.9 | 0.771 | 1.02 | 1.06 | 0.704 | 0.558 | 0.728 | 0.724
M fixed | 0.84 | 0.833 | 1.43 | 0.883 | 0.965 | 0.774 | 0.583 | 0.596 | 0.746 | 0.733
N fixed | 0.574 | 1.29 | 0.537 | 0.875 | 1.02 | 1.26 | 1.16 | 1.37 | 0.984 | 0.995
P fixed | 0.442 | 0.961 | 1.36 | 1.09 | 1.21 | 0.659 | 1.59 | 1.22 | 1.18 | 1.16
Q fixed | 1.21 | 1.03 | 0.578 | 0.994 | 0.932 | 1.12 | 1.17 | 1.1 | 1.07 | 0.976
R fixed | 0.887 | 1.07 | 0.554 | 1.06 | 1.05 | 0.597 | 0.88 | 0.918 | 0.995 | 1.18
S fixed | 1.11 | 1.25 | 0.616 | 0.957 | 1.2 | 0.704 | 1.34 | 1.27 | 0.948 | 1
T fixed | 1.26 | 1.18 | 0.723 | 0.899 | 1.02 | 1.11 | 0.99 | 0.977 | 0.767 | 0.893
V fixed | 1.99 | 1.07 | 1.72 | 0.851 | 0.867 | 1.21 | 0.868 | 0.605 | 0.711 | 0.735
W fixed | 1.22 | 1.54 | 1.84 | 2.49 | 1.2 | 0.931 | 0.629 | 0.784 | 1.19 | 1.31
pThr fixed | 1.16 | 1.4 | 0.271 | 0.399 | 0.597 | 2.21 | 1.93 | 1.77 | 1.38 | 1.32
pTyr fixed | 3.19 | 2.63 | 0.524 | 0.871 | 0.771 | 4.16 | 1.47 | 1.82 | 2.14 | 1.64
